# Reference: PMC9482650, “Quantitative fragmentomics allow affinity mapping of interactomes” (Nature Communications, 2022)
# B1: ZW10 (protein, UniProt O43264 2-779, looked up)
# Centromere/kinetochore …: ASFVTEVLAHSGRLEKEDLGTRISRLTRRVEEIKGEVCNMISKKYSEFLPSMQSAQGLITQVDKLSEDIDLLKSRIESEVRRDLHVSTGEFTDLKQQLERDSVVLSLLKQLQEFSTAIEEYNCALTEKKYVTGAQRLEEAQKCLKLLKSRKCFDLKILKSLSMELTIQKQNILYHLGEEWQKLIVWKFPPSKDTSSLESYLQTELHLYTEQSHKEEKTPMPPISSVLLAFSVLGELHSKLKSFGQMLLKYILRPLASCPSLHAVIESQPNIVIIRFESIMTNLEYPSPSEVFTKIRLVLEVLQKQLLDLPLDTDLENEKTSTVPLAEMLGDMIWEDLSECLIKNCLVYSIPTNSSKLQQYEEIIQSTEEFENALKEMRFLKGDTTDLLKYARNINSHFANKKCQDVIVAARNLMTSEIHNTVKIIPDSKINVPELPTPDEDNKLEVQKVSNTQYHEVMNLEPENTLDQHSFSLPTCRISESVKKLMELAYQTLLEATTSSDQCAVQLFYSVRNIFHLFHDVVPTYHKENLQKLPQLAAIHHNNCMYIAHHLLTLGHQFRLRLAPILCDGTATFVDLVPGFRRLGTECFLAQMRAQKGELLERLSSARNFSNMDDEENYSAASKAVRQVLHQLKRLGIVWQDVLPVNIYCKAMGTLLNTAISEVIGKITALEDISTEDGDRLYSLCKTVMDEGPQVFAPLSEESKNKKYQEEVPVYVPKWMPFKELMMMLQASLQEIGDRWADGKGPLAAAFSSSEVKALIRALFQNTERRAAALAKIK
# B2: UBA6 (protein, UniProt A0AVT1 1-1052, looked up)
# Ubiquitin-like …: MEGSEPVAAHQGEEASCSSWGTGSTNKNLPIMSTASVEIDDALYSRQRYVLGDTAMQKMAKSHVFLSGMGGLGLEIAKNLVLAGIKAVTIHDTEKCQAWDLGTNFFLSEDDVVNKRNRAEAVLKHIAELNPYVHVTSSSVPFNETTDLSFLDKYQCVVLTEMKLPLQKKINDFCRSQCPPIKFISADVHGIWSRLFCDFGDEFEVLDTTGEEPKEIFISNITQANPGIVTCLENHPHKLETGQFLTFREINGMTGLNGSIQQITVISPFSFSIGDTTELEPYLHGGIAVQVKTPKTVFFESLERQLKHPKCLIVDFSNPEAPLEIHTAMLALDQFQEKYSRKPNVGCQQDSEELLKLATSISETLEEKPDVNADIVHWLSWTAQGFLSPLAAAVGGVASQEVLKAVTGKFSPLCQWLYLEAADIVESLGKPECEEFLPRGDRYDALRACIGDTLCQKLQNLNIFLVGCGAIGCEMLKNFALLGVGTSKEKGMITVTDPDLIEKSNLNRQFLFRPHHIQKPKSYTAADATLKINSQIKIDAHLNKVCPTTETIYNDEFYTKQDVIITALDNVEARRYVDSRCLANLRPLLDSGTMGTKGHTEVIVPHLTESYNSHRDPPEEEIPFCTLKSFPAAIEHTIQWARDKFESSFSHKPSLFNKFWQTYSSAEEVLQKIQSGHSLEGCFQVIKLLSRRPRNWSQCVELARLKFEKYFNHKALQLLHCFPLDIRLKDGSLFWQSPKRPPSPIKFDLNEPLHLSFLQNAAKLYATVYCIPFAEEDLSADALLNILSEVKIQEFKPSNKVVQTDETARKPDHVPISSEDERNAIFQLEKAILSNEATKSDLQMAVLSFEKDDDHNGHIDFITAASNLRAKMYSIEPADRFKTKRIAGKIIPAIATTTATVSGLVALEMIKVTGGYPFEAYKNCFLNLAIPIVVFTETTEVRKTKIRNGISFTIWDRWTVHGKEDFTLLDFINAVKEKYGIEPTMVVQGVKMLYVPVMPGHAKRLKLTMHKLVKPTTEKKYVDLTVSFAPDIDGDEDLPGPPVRYYFSHDTD
# B3: SRSF3 (protein, UniProt P84103 1-164, looked up)
# Serine/arginine-rich splicing …: MHRDSCPLDCKVYVGNLGNNGNKTELERAFGYYGPLRSVWVARNPPGFAFVEFEDPRDAADAVRELDGRTLCGCRVRVELSNGEKRSRNRGPPPSWGRRPRDDYRRRSPPPRRRSPRRRSFSRSRSRSLSRDRRRERSLSRERNHKPSRSFSRSRSRSRSNERK
# B4: ARHGEF6 (protein, UniProt Q15052 1-776, looked up)
# Rho guanine nucleotide …: MNPEEQIVTWLISLGVLESPKKTICDPEEFLKSSLKNGVVLCKLINRLMPGSVEKFCLDPQTEADCINNINDFLKGCATLQVEIFDPDDLYSGVNFSKVLSTLLAVNKATEDQLSERPCGRSSSLSAANTSQTNPQGAVSSTVSGLQRQSKTVEMTENGSHQLIVKARFNFKQTNEDELSVCKGDIIYVTRVEEGGWWEGTLNGRTGWFPSNYVREIKSSERPLSPKAVKGFETAPLTKNYYTVVLQNILDTEKEYAKELQSLLVTYLRPLQSNNNLSTVEVTSLLGNFEEVCTFQQTLCQALEECSKFPENQHKVGGCLLSLMPHFKSMYLAYCANHPSAVNVLTQHSDELEQFMENQGASSPGILILTTNLSKPFMRLEKYVTLLQELERHMEDTHPDHQDILKAIVAFKTLMGQCQDLRKRKQLELQILSEPIQAWEGEDIKNLGNVIFMSQVMVQYGACEEKEERYLMLFSNVLIMLSASPRMSGFIYQGKIPIAGTVVTRLDEIEGNDCTFEITGNTVERIVVHCNNNQDFQEWLEQLNRLIRGPASCSSLSKTSSSSCSAHSSFSSTGQPRGPLEPPQIIKPWSLSCLRPAPPLRPSAALGYKERMSYILKESSKSPKTMKKFLHKRKTERKPSEEEYVIRKSTAALEEDAQILKVIEAYCTSANFQQGHGSSTRKDSIPQVLLPEEEKLIIEETRSNGQTIMEEKSLVDTVYALKDEVRELKQENKRMKQCLEEELKSRRDLEKLVRRLLKQTDECIRGESSSKTSILP
# Columns and labels:
# HEK293T cells = assay: Label-free MS proteome of stable cell lines expressing HPV16 E6 or E6ΔPBM; assay type: cell-based, human; details: protein level; for Difference log2 E6/Ctrl / Ratio E6/Ctrl: E6 cell line vs control; for Difference log2 dPBM/E6 / Ratio dPBM/E6: dPBM cell line vs E6 cell line; for Difference log2 dPBM/Ctrl / Ratio dPBM/Ctrl: dPBM cell line vs control
# Description: HEK293T and HeLa cells were authenticated and found 100% identity to ATCC cat. CRL-3216 and ATCC cat. CCL-2, respectively. Jurkat and HaCat cell lines were not authenticated (original source: ECACC and Deutsches Krebsforschungszentrum DKFZ, respectively). HeLa cells were grown in DMEM (1 g/L glucose, Gibco) medium completed with 5% FCS and 40 μg/mL gentamicin, diluted every 3rd/4th day 1/10. HaCat cells were grown in DMEM (1 g/L glucose, Gibco) medium completed with 10% FCS and 40 μg/mL gentamicin, diluted every 3rd/4th day 1/4. Jurkat cells were grown in RPMI (Gibco) medium completed with 10% FCS and 40 μg/mL gentamicin, diluted every 3rd/4th day 1/12. All cells were kept at 37 °C and 5% CO2. For proteomics analyses cells were seeded on T-175 flasks. After they reached confluency, adherent cells were washed with PBS once and collected by scraping with ice-cold lysis buffer (Hepes-KOH pH 7.5 50 mM, NaCl 150 mM, Triton X-100 1%, complete EDTA-free protease inhibitor cocktail 1×, EDTA 2 mM, TCEP 5 mM, glycerol 10%). Jurkat cells were collected by 1000 g × centrifugation, washed once with PBS, then collected by 1000 g × 5 min centrifugation again and lysed in ice-cold lysis buffer. Lysates were sonicated 4 × 20 s with 1 s long pulses on ice, then incubated rotating at 4 °C for 30 min. Lysates were centrifuged at 12,000 rpm 4 °C for 20 min and supernatant was kept for further analysis. Concentration determination was carried out by standard Bradford method (Bio-Rad Protein Assay Dye Reagent #5000006) using BSA (MP BIomedicals #160069) as control on a Bio-Rad SmartSpec 3000 spectrophotometer instrument.
# The samples were precipitated with TCA 20% overnight at 4 °C and centrifuged at 14,000 rpm for 10 min at 4 °C. The protein pellets were washed twice with 1 mL cold acetone and air dried. The protein extracts were solubilized in urea 8 M, reduced with 5 mM TCEP for 30 min, and alkylated with 10 mM iodoacetamide for 30 min in the dark. Double digestion was performed at 37 °C with 500 ng endoproteinase Lys-C for 4 h, followed by fourfold dilution and an overnight digestion with 500 ng trypsin. Peptide mixtures were then desalted on C18 spin-column and dried on Speed-Vacuum.
# Samples were analyzed using an Ultimate 3000 nano-RSLC (Thermo Scientific, San Jose California) coupled in line with a LTQ-Orbitrap ELITE mass spectrometer via a nano-electrospray ionization source (Thermo Scientific, San Jose California). Peptide mixtures were injected in 0.1% TFA on a C18 Acclaim PepMap100 trap-column (75 µm ID × 2 cm, 3 µm, 100 Å, Thermo Fisher Scientific) for 3 min at 5 µL/min with 2% ACN, 0.1% FA in H2O and then separated on a C18 Accucore nano-column (75 µm ID × 50 cm, 2.6 µm, 150 Å, Thermo Fisher Scientific) at 220 nl/min and 38 °C with a 90 min linear gradient from 5% to 30% buffer B (A: 0.1% FA in H2O/B: 99% ACN, 0.1% FA in H2O), regeneration at 5% B. The mass spectrometer was operated in positive ionization mode, in data-dependent mode with survey scans from m/z 350–1500 acquired in the Orbitrap at a resolution of 120,000 at m/z 400. The 20 most intense peaks from survey scans were selected for further fragmentation in the Linear Ion Trap with an isolation window of 2.0 Da and were fragmented by CID with normalized collision energy of 35%. (TOP20CID method) Unassigned and single charged states were excluded from fragmentation. The Ion Target Value for the survey scans (in the Orbitrap) and the MS2 mode (in the Linear Ion Trap) were set to 1E6 and 5E3 respectively and the maximum injection time was set to 100 ms for both scan modes. Dynamic exclusion was set to 20 s after one repeat count with mass width at ±10 ppm.
# Proteins were identified by database searching using SequestHT (Thermo Fisher Scientific) with Proteome Discoverer 2.4 software (PD2.4, Thermo Fisher Scientific) on human FASTA database downloaded from SwissProt (reviewed, release 2020_11_27, 20304 entries, https://www.uniprot.org/). […]
# HeLa cell extract preys = assay: PDZ-AP-MS, biotinylated MBP-PDZ baits; assay type: binding, human; details: PDZ-AP-MS fold change of the PBM-protein prey
# Outline: (§1)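 Biotinylated His6-AviTag-MBP-PDZ baits, or MBP alone, saturated streptavidin resin and were then biotin-blocked. Each was incubated with 1 mg cell lysate for 2 h at 4 °C, washed, and eluted in 8 M urea. Eluates were digested with Lys-C/trypsin, run by nanoLC-MS/MS on an Orbitrap Elite (top20 CID) and searched against human SwissProt.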
# HaCat cell extract preys = assay: PDZ-AP-MS, biotinylated MBP-PDZ baits; assay type: binding, human
# Outline: as §1
# [1] = tested on: Jurkat cell extract preys; assay: PDZ-AP-MS, biotinylated MBP-PDZ baits; assay type: binding, human; details: for Difference log2: enrichment of prey
# Outline: as §1
# [2] = PDZ-AP-MS fold change of the PBM-protein prey, bait MBP-PDZ DLG1_1
# [3] = PDZ-AP-MS fold change of the PBM-protein prey, bait MBP-PDZ DLG1_2
# [4] = PDZ-AP-MS fold change of the PBM-protein prey, bait MBP-PDZ SCRIB_1
# [5] = PDZ-AP-MS fold change of the PBM-protein prey, bait MBP-PDZ SCRIB_2
# [6] = PDZ-AP-MS fold change of the PBM-protein prey, bait MBP-PDZ SNX27
# [7] = PDZ-AP-MS fold change of the PBM-protein prey, bait MBP-PDZ TX1BP3
# [8] = bait SCRIB_1 PDZ, fold change of prey
molecule,measurement,setting,value
B1,Difference log2 E6/Ctrl,HEK293T cells,1.251
same,Ratio E6/Ctrl,HEK293T cells,2.38
same,Difference log2 dPBM/E6,HEK293T cells,-3.211
same,Ratio dPBM/E6,HEK293T cells,0.108
same,Difference log2 dPBM/Ctrl,HEK293T cells,-1.96
same,Ratio dPBM/Ctrl,HEK293T cells,0.2569
B2,Difference log2 E6/Ctrl,HEK293T cells,-0.8956
same,Ratio E6/Ctrl,HEK293T cells,0.5375
same,Difference log2 dPBM/E6,HEK293T cells,0.6111
same,Ratio dPBM/E6,HEK293T cells,1.527
same,Difference log2 dPBM/Ctrl,HEK293T cells,-0.2845
same,Ratio dPBM/Ctrl,HEK293T cells,0.821
B3,"Fold changes, HeLa, DLG1_1",HeLa cell extract preys; bait MBP-PDZ DLG1_1,8.89
same,"Fold changes, HeLa, DLG1_2",HeLa cell extract preys; bait MBP-PDZ DLG1_2,0.7503
same,"Fold changes, HeLa, SCRIB_1",HeLa cell extract preys; bait MBP-PDZ SCRIB_1,8.2529
same,"Fold changes, HeLa, SCRIB_2",HeLa cell extract preys; bait MBP-PDZ SCRIB_2,6.813
same,"Fold changes, HeLa, SNX27",HeLa cell extract preys; bait MBP-PDZ SNX27,0.891
same,"Fold changes, HeLa, TX1BP3",HeLa cell extract preys; bait MBP-PDZ TX1BP3,0.5408
same,"Fold changes, HaCat, DLG1_1",HaCat cell extract preys; [2],0.6471
same,"Fold changes, HaCat, DLG1_2",HaCat cell extract preys; [3],0.7027
same,"Fold changes, HaCat, SCRIB_1",HaCat cell extract preys; [4],0.4366
same,"Fold changes, HaCat, SCRIB_2",HaCat cell extract preys; [5],0.378
same,"Fold changes, HaCat, SNX27",HaCat cell extract preys; [6],0.5499
same,"Fold changes, HaCat, TX1BP3",HaCat cell extract preys; [7],0.6457
same,"Fold changes, Jurkat, DLG1_1",[1]; [2],0.942
same,"Fold changes, Jurkat, DLG1_2",[1]; [3],1.581
same,"Fold changes, Jurkat, SCRIB_1",[1]; [4],0.6991
same,"Fold changes, Jurkat, SCRIB_2",[1]; [5],0.9858
same,"Fold changes, Jurkat, SNX27",[1]; [6],1.323
same,"Fold changes, Jurkat, TX1BP3",[1]; [7],0.7942
B4,Difference log2,"HaCat cell extract preys; bait SCRIB_1 PDZ vs MBP, enrichment of prey",5.7166
same,Ratio SCRIB_1/MBP,HaCat cell extract preys; [8],52.5856
same,Difference log2,[1]; bait SCRIB_1 PDZ vs MBP,4.28
same,Ratio SCRIB_1/MBP,[1]; [8],19.4266
same,Difference log2,[1]; bait TX1BP3 PDZ vs MBP,7.045
same,Ratio TX1BP3 / MBP,"[1]; bait TX1BP3 PDZ, fold change of prey",132.089
